Laboratory results as given in US20210285024.

Tests used:
[1] = biological target: human tubulin purified from HEK293 cells
[2] = biological target: tubulin purified from Spodoptera Frugiperda Sf9 cells (fully tyrosinated; used as purified tubulin or polymerised microtubules)

B1: recombinant SVBP-VASH2 complex (protein)
chain 1: not shown
chain 2: MDPPARKEKTKVKESVSRVEKAKQKSAQQELKQRQRAEIYALNRVMTELEQQQFDEFCKQMQPPGE
- detyrosination assay (western blot, relative optical density detyrosination/tubulin) [1]: the fold induction of the tubulin detyrosination resulting from SVBP-VASH2 complex was significantly lower with human tubulin purified from HEK293 cells in comparison to the one obtained using Sf9 cells extracted tubulin
- detyrosination assay (western blot, relative optical density detyrosination/tubulin) [2]: SVBP-VASH2 complex strongly induced detyrosination in the assay
